According to FireProtDB (doi:10.1021/bi060907v):

B1: Ribonuclease HII, O74035 (parent)
chain: MKIAGIDEAGRGPVIGPMVIAAVVVDENSLPKLEELKVRDSKKLTPKRREKLFNEILGVLDDYVILELPPDVIGSREGTLNEFEVENFAKALNSLKVKPDVIYADAADVDEERFARELGERLNFEAEVVAKHKADDIFPVVSAASILAKVTRDRAVEKLKEEYGEIGSGYPSDPRTRAFLENYYREHGEFPPIVRKGWKTLKKIAEKVESEKKAEERQATLDRYFRKV

Variants of: B1
Conditions: Thermococcus kodakarensis (strain ATCC BAA-918 / JCM 12380 / KOD1), pH 9, reversible: Yes, structure 1IO2, whole UniProt chain shown; for ddG of mutation (higher = less stable) / denaturant m value / denaturant midpoint (higher = more stable): 50 °C, GdnHCl, CD, Tris-HCl 20 mM; for Tm / change of melting temperature, mutant - wild type (higher = more stable) / unfolding enthalpy (calorimetric) / unfolding enthalpy (van 't Hoff): Thermal, DSC, Gly-NaOH 20 mM

Variant	ddG of mutation (higher = less stable) [kcal/mol]	denaturant m value [kcal/mol/M]	denaturant midpoint (higher = more stable) [M]	Tm [°C]	change of melting temperature, mutant - wild type (higher = more stable) [°C]	unfolding enthalpy (calorimetric) [kcal/mol]	unfolding enthalpy (van 't Hoff) [kcal/mol]
D135A	-2.56	4.85	2.37	90.4	5.2	147	153
E8Q	-0.6	3.73	1.97	85.9	0.6	158	163
E8A	-2.65	4.73	2.39	93.2	8	171	150
D105A	-1.58	5.66	2.17	89.4	4.2	170	162
D7N	-1.67	4.45	2.18	88.3	3.1	137	163
